The source of these data is patent US20040002450A1, “Y17 - isolated molecules comprising epitopes containing sulfated moieties, antibodies to such epitopes, and uses thereof” (priority 2000, published 2004).

Details in all cases: remark: other sources report otherwise
In test [1] the target is Y1 scFv. In words: competition ELISA on coated glycocalicin, 0.25 µg/well Y1, peptide 0.5 µM. On the technique in general: In an ELISA, binding on a coated surface is turned into a signal by an enzyme label.
Sequence of Y1 scFv (chain, as listed by the source): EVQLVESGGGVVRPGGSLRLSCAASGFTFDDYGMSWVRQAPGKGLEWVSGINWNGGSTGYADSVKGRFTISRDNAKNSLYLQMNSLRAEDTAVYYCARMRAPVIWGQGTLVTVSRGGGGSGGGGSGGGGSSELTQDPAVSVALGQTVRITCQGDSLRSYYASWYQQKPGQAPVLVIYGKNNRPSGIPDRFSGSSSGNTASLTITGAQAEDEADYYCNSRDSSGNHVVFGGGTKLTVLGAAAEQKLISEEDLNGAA
Test [2] addresses Y1 scFv. In words: competition ELISA on coated glycocalicin, 0.25 µg/well Y1, peptide 200 µM.
The target of test [3] is Y1 scFv. The test is described as follows: competition ELISA on coated glycocalicin, 0.25 µg/well Y1, peptide 2.5 µM.
Test [4] deals with Y1 scFv. In words: competition ELISA on coated glycocalicin, 0.25 µg/well Y1, peptide 25 µM.
The target of test [5] is Y1 scFv. In words: competitive FACS, 1 µg Y1-scFv on ~10^7 washed platelets, peptide 200 µM.
In test [6] the target is Y1 scFv. In words: competitive FACS, 1 µg Y1-scFv on ~10^7 washed platelets, peptide 2.5 µM.

Non-standard residues stand in square brackets, D forms with d. No end group written: not given here. sY = N[C@@H](Cc1ccc(OS(=O)(=O)O)cc1)C(=O)O

GDEGDTDL[sY]D[sY][sY]PEEDTE [P-1-S]: the Residual Binding of Y1 (% of baseline) (% of baseline) came to 89 in test [1], 0 in test [2], 62 in test [3] and 25 in test [4]. The Residual Binding of Y1 (% of baseline) (Geo Mean) (% of baseline) is 5 in test [5] and 41 in test [6].
